Here are results for two molecules from article PMC3758794 (Cell biochemistry and biophysics, 2013).

One data set concerns the target UBE2W-WT (human) (UniProt Q96B02). Briefly: SEC.
The data set “SEC” deals with the molecule itself. Kind of data set: SEC. (Size exclusion chromatography separates by hydrodynamic size, large species first.)

As usually defined, the stoichiometry N is the number of molecules, sites or subunits per partner or assembly. In turn, “UBE2W-WT (from UniProt Q96B02 1-151) (enzyme)” gave a stoichiometry N with UBE2W-WT (human) of 2.

B1: UBE2W-131Δ (truncation following Y131) (domain or fragment, human, UniProt Q96B02 1-131, looked up)
chain: MASMQKRLQKELLALQNDPPPGMTLNEKSVQNSITQWIVDMEGAPGTLYEGEKFQLLFKFSSRYPFDSPQVMFTGENIPVHPHVYSNGHICLSILTEDWSPALSVQSVCLSIISMLSSCKEKRRPPDNSFY
As to B1, the “stoichiometry N” value in the data set “SEC” was determined as 2.
